Laboratory results taken from article PMC8657904.

What was measured:
[1] = target: CmbHLH2.1 (alternative splicing variant of CmbHLH2) from chrysanthemum 'Jimba', GAL4 DNA-binding domain fusion (Chrysanthemum x morifolium 'Jimba')
[2] = target: CmbHLH2 from chrysanthemum 'Jimba', GAL4 DNA-binding domain fusion (Chrysanthemum x morifolium 'Jimba')
Sequence of CmbHLH2 from chrysanthemum 'Jimba', GAL4 DNA-binding domain fusion (Chrysanthemum x morifolium 'Jimba') (main, as listed by the source): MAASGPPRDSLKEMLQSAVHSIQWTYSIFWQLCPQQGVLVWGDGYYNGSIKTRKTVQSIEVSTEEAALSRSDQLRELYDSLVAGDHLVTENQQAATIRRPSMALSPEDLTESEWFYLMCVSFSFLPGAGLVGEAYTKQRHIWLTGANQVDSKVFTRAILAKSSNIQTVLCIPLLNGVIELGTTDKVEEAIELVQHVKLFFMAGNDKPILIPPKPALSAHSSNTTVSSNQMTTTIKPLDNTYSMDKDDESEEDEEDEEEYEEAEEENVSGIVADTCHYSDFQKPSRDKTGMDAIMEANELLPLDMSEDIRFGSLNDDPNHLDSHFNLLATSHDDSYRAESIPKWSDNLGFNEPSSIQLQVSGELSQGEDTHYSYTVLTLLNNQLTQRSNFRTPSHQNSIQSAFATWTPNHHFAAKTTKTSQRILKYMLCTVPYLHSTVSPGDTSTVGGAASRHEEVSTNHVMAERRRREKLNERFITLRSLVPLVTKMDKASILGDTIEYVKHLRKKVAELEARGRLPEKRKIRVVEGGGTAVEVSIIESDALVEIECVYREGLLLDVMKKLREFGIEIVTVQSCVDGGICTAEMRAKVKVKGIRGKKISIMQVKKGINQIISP

Sequence of CmbHLH2.1 (alternative splicing variant of CmbHLH2) from chrysanthemum 'Jimba', GAL4 DNA-binding domain fusion (Chrysanthemum x morifolium 'Jimba') (main, as listed by the source mutant): as the sequence (main, as listed by the source) above

dual-luciferase assay in Nicotiana benthamiana leaves: fold-induced activation of the CmDFR promoter by CmMYB6 together with CmbHLH2.1, compared to empty vector [1]: > 10 times
dual-luciferase assay in Nicotiana benthamiana leaves: fold-induced activation of the CmDFR promoter by CmMYB6 together with CmbHLH2, compared to empty vector [2]: > 40 times
Substance: CmMYB6 (transcript20734) from chrysanthemum 'Jimba', GAL4 activation domain fusion (natural protein)
